Seven molecules from US20250177546A1 (SANYOU BIOPHARMACEUTICALS, published 2025) can be followed below.

For orientation: EC50 means the concentration that produces a half-maximal response. A high value points to weaker potency.

The chains are these.
B1: B62-H2L4 (antibody, human IgG1, kappa, V domains shown)
VH: EVQLVESGGGLVQPGGSLRLSCAASGFTFSSYVMSWVRQAPGKGLELVATINSNGGNTYYPDSVKGRFTISRDNAKNTLYLQMGSLRAEDTAMYYCARDSLGLRRRDYAMDYWGQGTTVTVSS
VL: DIQMTQSPSSLSASVGDRVTITCQTSIDIDDDVNWYQQKPGKAPKLLISAGNTLETGVPSRFSGSGSGTDFTFTISSLQPEDIATYYCLQSDNLPYTFGGGTKLEIKR
B2: B62-H3L4 (antibody, human IgG1, kappa, V domains shown)
VH: EVQLVESGGGLVQPGGSLRLSCAASGFTFSSYVMSWVRQAPGKGLEYVATINSNGGNTYYADSVKGRFTISRDNSKNTLYLQMGSLRAEDTAMYYCARDSLGLRRRDYAMDYWGQGTTVTVSS
VL: DIQMTQSPSSLSASVGDRVTITCQTSIDIDDDVNWYQQKPGKAPKLLISAGNTLETGVPSRFSGSGSGTDFTFTISSLQPEDIATYYCLQSDNLPYTFGGGTKLEIKR
B3: B62-H3L2 (antibody, human IgG1, kappa)
heavy: not shown
light: DIQLTQSPSSLSASVGDRVTIRCVTSIDIDDDVNWYQQKPGKAPKLLISAGNTLRPGVPSRFSGSGSGTDFTFTISSLQPEDIATYYCLQSDNLPYTFGGGTKLEIKRTVAAPSVFIFPPSDEQLKSGTASVVCLLNNFYPREAKVQWKVDNALQSGNSQESVTEQDSKDSTYSLSSTLTLSKADYEKHKVYACEVTHQGLSSPVTKSFNRGEC
B4: B62-H2L3 (antibody, human IgG1, kappa)
heavy: not shown
light: DIQMTQSPSSLSASVGDRVTITCVTSIDIDDDVNWYQQKPGKAPKLLISAGNTLRPGVPSRFSGSGSGTDFTFTISSLQPEDIATYYCLQSDNLPYTFGGGTKLEIKRTVAAPSVFIFPPSDEQLKSGTASVVCLLNNFYPREAKVQWKVDNALQSGNSQESVTEQDSKDSTYSLSSTLTLSKADYEKHKVYACEVTHQGLSSPVTKSFNRGEC
B5: B62-H2L2 (antibody, human IgG1, kappa)
heavy: not shown
light: DIQLTQSPSSLSASVGDRVTIRCVTSIDIDDDVNWYQQKPGKAPKLLISAGNTLRPGVPSRFSGSGSGTDFTFTISSLQPEDIATYYCLQSDNLPYTFGGGTKLEIKRTVAAPSVFIFPPSDEQLKSGTASVVCLLNNFYPREAKVQWKVDNALQSGNSQESVTEQDSKDSTYSLSSTLTLSKADYEKHKVYACEVTHQGLSSPVTKSFNRGEC
B6: B62-H1L2 (antibody, human IgG1, kappa, V domains shown)
VH: EVQLVESGGGLVQPGGSLRLSCAASGFTFSSYVMSWVRQTPGKRLELVATINSNGGNTYYPDSVKGRFTISRDNAKNTLYLQMSSLRAEDTAMYYCARDSLGLRRRDYAMDYWGQGTTVTVSS
VL: DIQLTQSPSSLSASVGDRVTIRCVTSIDIDDDVNWYQQKPGKAPKLLISAGNTLRPGVPSRFSGSGSGTDFTFTISSLQPEDIATYYCLQSDNLPYTFGGGTKLEIKR
B7: B62-H1L1 (antibody, human IgG1, kappa, V domains shown)
VH: EVQLVESGGGLVQPGGSLRLSCAASGFTFSSYVMSWVRQTPGKRLELVATINSNGGNTYYPDSVKGRFTISRDNAKNTLYLQMSSLRAEDTAMYYCARDSLGLRRRDYAMDYWGQGTTVTVSS
VL: DIQLTQSPSSLSASVGDRVTIRCVTSIDIDDDVNWYQQKPGKAPKLLISAGNTLRPGVPSRFSSSGYGTDFTFTISSMQPEDIATYYCLQSDNLPYTFGGGTKLEIKR

T1 sequence (Q01973 30-406 limits assumed): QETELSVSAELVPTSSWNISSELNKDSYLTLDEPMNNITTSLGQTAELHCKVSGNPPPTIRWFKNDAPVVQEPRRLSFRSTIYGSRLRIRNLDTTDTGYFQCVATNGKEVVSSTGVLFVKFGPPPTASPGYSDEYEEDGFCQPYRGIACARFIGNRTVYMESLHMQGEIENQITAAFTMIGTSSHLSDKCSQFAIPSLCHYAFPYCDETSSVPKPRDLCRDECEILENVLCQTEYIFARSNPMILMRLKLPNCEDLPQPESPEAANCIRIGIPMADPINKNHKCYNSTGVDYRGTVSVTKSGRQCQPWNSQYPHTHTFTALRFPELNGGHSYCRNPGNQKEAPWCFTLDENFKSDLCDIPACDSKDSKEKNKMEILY

One test has as its target T1, huROR1-His (human ROR1 ECD AA30-406 with C-terminal His tag, made in house) (human, UniProt Q01973 30-406).
T1 construct: range 30-406; Expressed in HEK293; also called antigen protein huROR1-His; not shown: C-terminal His tag
Kind of test: ELISA, huROR1-His coated plate, goat anti-human Fc-HRP, OD450. (In general: An ELISA detects its analyte on a solid surface through an enzyme-linked reagent.)
Consider B1, for which the EC50 was 8.48 ng/mL.
Still for that read-out and setting: the same measure for B2: 6.24 ng/mL; for B3: 6.59 ng/mL.

A further test addresses T1, huROR1-His (human ROR1 ECD AA30-406 …). The description is as above. This is another data set of the same source.
For B4, the EC50 amounted to 6.3 ng/mL.
Still for that read-out and setting: under B5 stands 6.27 ng/mL; under B6, 7.88 ng/mL; under B7, 7.1 ng/mL.
